1 molecule from patent publication US20230357367A1 can be followed below.

Common to all, as to test: DELFIA, IgG titrated on captured biotin-peptide
Design in all cases: unit not given beside the values

In assay [1] the target is SARS-CoV-2 spike S2 peptide 1133-1147, biotinylated (SARS-CoV-2).
Assay [2] concerns the target SARS-CoV-2 spike S2 peptide 1137-1151, biotinylated (SARS-CoV-2).
Assay [3] has as its target SARS-CoV-2 spike S2 peptide 1141-1155, biotinylated (SARS-CoV-2).
The target of assay [4] is SARS-CoV-2 spike S2 peptide 1143-1162 (stem helix region), biotinylated (SARS-CoV-2).
The target in assay [5] is SARS-CoV-2 spike S2 peptide 1145-1159, biotinylated (SARS-CoV-2).
The target of assay [6] is SARS-CoV-2 spike S2 peptide 1149-1163, biotinylated (SARS-CoV-2).
In assay [7] the target is SARS-CoV-2 spike S2 peptide 1149-1167 (C-terminal end of the stem helix), biotinylated (SARS-CoV-2).
Assay [8] has as its target SARS-CoV-2 spike S2 peptide 1153-1167, biotinylated (SARS-CoV-2).
Assay [9] addresses SARS-CoV-2 spike S2 peptide 1157-1171, biotinylated (SARS-CoV-2).

B1: AB-1 (antibody, V domains shown)
VH: EVQLVESGAEVKKPGESLKISCKGSGYTFTRYWIGWVRQMPGKGLEWMGIIYPGDSDVRYSPSFQGHVTISADKSISTAYLQWNSLKASDTAMYYCARLPQYCSKGVCYRWFDPWGQGTLVTVSS
VL: EIVLTQSPSSVSASVGDRVTITCRASQGISSWLAWYQQKPGKAPKLLIYAASSLQSGVPSRFSGSGSGTDFTLTISSLQPEDFATYYCQQGHSFPYTFGQGTNLEIK
As for B1, the AUC came to 27100 in [1]; 21500 in [2]; 18000 in [3]; 3.52e+06 in assay [4]; 1.7e+06 in assay [5]; 3.52e+06 in assay [6]. The AUC in assay [7] was 3.27e+06; in assay [8] it was 3.32e+06; in assay [9], 30000.
